# From article PMC9482650, “Quantitative fragmentomics allow affinity mapping of interactomes” (Nature Communications, 2022)
# Numbering of substitutions follows the chain as printed.
# T1: ARHGEF11, O15085
# T1 sequence (O15085 42-136, limits assumed, looked up): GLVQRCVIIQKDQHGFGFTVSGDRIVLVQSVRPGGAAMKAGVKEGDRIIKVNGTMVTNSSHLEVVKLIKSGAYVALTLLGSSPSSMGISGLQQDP
# T2: DFNB31_1, Q9P202
# T2 sequence (Q9P202 135-233, limits assumed, looked up): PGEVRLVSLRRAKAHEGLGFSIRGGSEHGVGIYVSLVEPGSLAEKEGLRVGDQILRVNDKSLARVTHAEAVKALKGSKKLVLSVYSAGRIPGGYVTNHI
# T3: DFNB31_3, Q9P202
# T3 sequence (Q9P202 811-907, limits assumed, looked up): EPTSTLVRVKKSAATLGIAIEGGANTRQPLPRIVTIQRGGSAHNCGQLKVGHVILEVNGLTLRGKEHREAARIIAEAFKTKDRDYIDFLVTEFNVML
# T4: DLG3_3, Q92796
# T4 sequence (Q92796 374-475, limits assumed, looked up): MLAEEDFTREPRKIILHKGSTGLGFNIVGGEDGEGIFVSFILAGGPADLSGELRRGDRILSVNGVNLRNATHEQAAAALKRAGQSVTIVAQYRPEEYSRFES
# T5: GRIP1_3, Q9Y3R0
# T5 sequence (Q9Y3R0 247-346, limits assumed, looked up): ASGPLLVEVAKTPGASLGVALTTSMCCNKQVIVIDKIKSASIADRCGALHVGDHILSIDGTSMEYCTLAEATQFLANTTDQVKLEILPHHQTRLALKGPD
# T6: GRIP1_4, Q9Y3R0
# T6 sequence (Q9Y3R0 467-571, limits assumed, looked up): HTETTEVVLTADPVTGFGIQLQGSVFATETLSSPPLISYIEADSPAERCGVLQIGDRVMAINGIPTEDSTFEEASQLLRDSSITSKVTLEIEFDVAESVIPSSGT
# T7: HTRA3, P83110
# T7 sequence (P83110 354-453, limits assumed, looked up): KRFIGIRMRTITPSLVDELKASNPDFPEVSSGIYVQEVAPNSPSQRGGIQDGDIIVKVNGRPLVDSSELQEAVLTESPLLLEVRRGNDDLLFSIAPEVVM
# T8: LIN7B, Q9HAP6
# T8 sequence (Q9HAP6 88-185, limits assumed, looked up): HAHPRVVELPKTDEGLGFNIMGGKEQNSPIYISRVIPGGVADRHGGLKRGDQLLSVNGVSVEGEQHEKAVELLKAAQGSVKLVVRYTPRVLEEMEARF
# T9: LIN7C, Q9NUP9
# T9 sequence (Q9NUP9 88-185, limits assumed, looked up): T8 sequence (Q9HAP6 88-185, limits assumed, looked up) with A2S, D13E, V35I, V40I, Q65H, S79K, R89K, A96S
# T10: MPP7, Q5T2T1
# T10 sequence (Q5T2T1 134-230, limits assumed, looked up): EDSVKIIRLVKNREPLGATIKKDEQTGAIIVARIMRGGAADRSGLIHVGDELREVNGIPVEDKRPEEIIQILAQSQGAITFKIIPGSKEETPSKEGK
# T11: PDZRN3_1, Q9UPQ7
# T11 sequence (Q9UPQ7 244-349, limits assumed, looked up): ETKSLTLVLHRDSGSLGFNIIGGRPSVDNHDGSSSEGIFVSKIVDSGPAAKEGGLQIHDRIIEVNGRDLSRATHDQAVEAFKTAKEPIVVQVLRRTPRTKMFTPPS
# T12: SIPA1L2, Q9P2F8
# T12 sequence (Q9P2F8 945-1036, limits assumed, looked up): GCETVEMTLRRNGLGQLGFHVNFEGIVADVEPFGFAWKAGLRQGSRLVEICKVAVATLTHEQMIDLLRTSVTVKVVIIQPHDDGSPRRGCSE
# T13: SNTA1, Q13424
# T13 sequence (Q13424 82-180, limits assumed, looked up): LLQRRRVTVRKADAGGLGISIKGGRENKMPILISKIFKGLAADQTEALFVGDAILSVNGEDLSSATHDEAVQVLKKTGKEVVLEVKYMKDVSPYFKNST
# B1: CXCR1, P25024 (peptide)
# chain: SSSVNVSSNL
# B2: KCNJ9, Q92806 (peptide)
# chain: LPPPESESKV
# Biological target: T1, ARHGEF11, O15085
# Assay: holdup assay
# Set-up: key: below the threshold = too weak to quantify, mostly under pKd 3.1 to 4
# Conditions: plain residues with an end cap or a label only (N-terminal biotin on a linker: ado-ado)
row,pKd,Binder
1,3.75,B1
2,below the threshold,B2

# Biological target: CASK, O14936
# Sequence (O14936 487-570): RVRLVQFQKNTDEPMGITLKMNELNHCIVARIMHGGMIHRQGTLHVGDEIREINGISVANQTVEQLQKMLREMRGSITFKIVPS
# Assay: holdup assay
# Set-up: key: below the threshold = too weak to quantify, mostly under pKd 3.1 to 4
# Conditions: plain residues with an end cap or a label only (N-terminal biotin on a linker: ado-ado)
row,pKd,Binder
1,below the threshold,B1
2,below the threshold,B2

# Biological target: T2, DFNB31_1, Q9P202
# Assay: holdup assay
# Set-up: key: below the threshold = too weak to quantify, mostly under pKd 3.1 to 4
# Conditions: plain residues with an end cap or a label only (N-terminal biotin on a linker: ado-ado)
row,pKd,Binder
1,3.56,B1
2,4.01,B2

# Biological target: T3, DFNB31_3, Q9P202
# Assay: holdup assay
# Set-up: key: below the threshold = too weak to quantify, mostly under pKd 3.1 to 4
# Conditions: plain residues with an end cap or a label only (N-terminal biotin on a linker: ado-ado)
row,pKd,Binder
1,4.18,B1
2,below the threshold,B2

# Biological target: T4, DLG3_3, Q92796
# Assay: holdup assay
# Set-up: key: below the threshold = too weak to quantify, mostly under pKd 3.1 to 4
# Conditions: plain residues with an end cap or a label only (N-terminal biotin on a linker: ado-ado)
row,pKd,Binder
1,below the threshold,B1
2,below the threshold,B2

# Biological target: DLG4_2, P78352
# Sequence (P78352 155-259): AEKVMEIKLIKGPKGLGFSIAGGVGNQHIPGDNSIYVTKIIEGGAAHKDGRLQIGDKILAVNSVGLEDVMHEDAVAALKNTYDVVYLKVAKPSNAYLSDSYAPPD
# Assay: holdup assay
# Set-up: key: below the threshold = too weak to quantify, mostly under pKd 3.1 to 4
# Conditions: plain residues with an end cap or a label only (N-terminal biotin on a linker: ado-ado)
row,pKd,Binder
1,below the threshold,B1
2,3.67,B2

# Biological target: FRMPD4, Q14CM0
# Sequence (Q14CM0 67-160): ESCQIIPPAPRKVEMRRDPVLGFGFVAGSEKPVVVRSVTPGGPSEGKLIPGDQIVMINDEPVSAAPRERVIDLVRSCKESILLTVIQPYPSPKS
# Assay: holdup assay
# Set-up: key: below the threshold = too weak to quantify, mostly under pKd 3.1 to 4
# Conditions: plain residues with an end cap or a label only (N-terminal biotin on a linker: ado-ado)
row,pKd,Binder
1,3.57,B1
2,below the threshold,B2

# Biological target: GIPC2, Q8TF65
# Sequence (Q8TF65 112-203): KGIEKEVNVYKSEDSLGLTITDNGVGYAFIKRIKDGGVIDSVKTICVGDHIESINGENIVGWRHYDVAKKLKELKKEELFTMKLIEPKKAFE
# Assay: holdup assay
# Set-up: key: below the threshold = too weak to quantify, mostly under pKd 3.1 to 4
# Conditions: plain residues with an end cap or a label only (N-terminal biotin on a linker: ado-ado)
row,pKd,Binder
1,below the threshold,B1
2,below the threshold,B2

# Biological target: GOPC, Q9HD26
# Assay: holdup assay
# Set-up: key: below the threshold = too weak to quantify, mostly under pKd 3.1 to 4
# Conditions: plain residues with an end cap or a label only (N-terminal biotin on a linker: ado-ado)
row,pKd,Binder
1,below the threshold,B1
2,below the threshold,B2

# Biological target: GORASP1, Q9BQQ3
# Sequence (Q9BQQ3 1-208): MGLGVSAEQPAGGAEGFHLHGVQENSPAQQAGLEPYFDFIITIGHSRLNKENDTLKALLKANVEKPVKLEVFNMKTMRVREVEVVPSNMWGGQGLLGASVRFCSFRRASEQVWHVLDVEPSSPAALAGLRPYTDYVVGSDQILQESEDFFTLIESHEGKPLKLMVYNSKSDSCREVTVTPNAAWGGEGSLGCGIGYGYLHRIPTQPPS
# Assay: holdup assay
# Set-up: key: below the threshold = too weak to quantify, mostly under pKd 3.1 to 4
# Conditions: plain residues with an end cap or a label only (N-terminal biotin on a linker: ado-ado)
row,pKd,Binder
1,below the threshold,B1
2,below the threshold,B2

# Biological target: GORASP2, Q9H8Y8
# Assay: holdup assay
# Set-up: key: below the threshold = too weak to quantify, mostly under pKd 3.1 to 4
# Conditions: plain residues with an end cap or a label only (N-terminal biotin on a linker: ado-ado)
row,pKd,Binder
1,below the threshold,B1
2,below the threshold,B2

# Biological target: GRID2IP_1, A4D2P6
# Sequence (A4D2P6 1-87): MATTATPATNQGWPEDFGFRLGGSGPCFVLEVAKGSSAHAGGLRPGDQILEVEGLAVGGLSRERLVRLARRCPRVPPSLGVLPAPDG
# Assay: holdup assay
# Set-up: key: below the threshold = too weak to quantify, mostly under pKd 3.1 to 4
# Conditions: plain residues with an end cap or a label only (N-terminal biotin on a linker: ado-ado)
row,pKd,Binder
1,below the threshold,B1
2,below the threshold,B2

# Biological target: T5, GRIP1_3, Q9Y3R0
# Assay: holdup assay
# Set-up: key: below the threshold = too weak to quantify, mostly under pKd 3.1 to 4
# Conditions: plain residues with an end cap or a label only (N-terminal biotin on a linker: ado-ado)
row,pKd,Binder
1,below the threshold,B1
2,below the threshold,B2

# Biological target: T6, GRIP1_4, Q9Y3R0
# Assay: holdup assay
# Set-up: key: below the threshold = too weak to quantify, mostly under pKd 3.1 to 4
# Conditions: plain residues with an end cap or a label only (N-terminal biotin on a linker: ado-ado)
row,pKd,Binder
1,below the threshold,B1
2,below the threshold,B2

# Biological target: GRIP2_5, Q9C0E4
# Sequence (Q9C0E4 544-642): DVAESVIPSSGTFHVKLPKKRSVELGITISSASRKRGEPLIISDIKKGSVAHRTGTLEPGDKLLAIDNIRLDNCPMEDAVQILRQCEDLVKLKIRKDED
# Assay: holdup assay
# Set-up: key: below the threshold = too weak to quantify, mostly under pKd 3.1 to 4
# Conditions: plain residues with an end cap or a label only (N-terminal biotin on a linker: ado-ado)
row,pKd,Binder
1,below the threshold,B1
2,below the threshold,B2

# Biological target: T7, HTRA3, P83110
# Assay: holdup assay
# Set-up: key: below the threshold = too weak to quantify, mostly under pKd 3.1 to 4
# Conditions: plain residues with an end cap or a label only (N-terminal biotin on a linker: ado-ado)
row,pKd,Binder
1,below the threshold,B1
2,below the threshold,B2

# Biological target: Inadl_2, Q8NI35
# Sequence (Q8NI35 238-335): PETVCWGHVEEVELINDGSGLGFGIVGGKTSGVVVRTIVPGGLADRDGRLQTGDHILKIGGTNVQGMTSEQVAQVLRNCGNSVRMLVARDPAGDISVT
# Assay: holdup assay
# Set-up: key: below the threshold = too weak to quantify, mostly under pKd 3.1 to 4
# Conditions: plain residues with an end cap or a label only (N-terminal biotin on a linker: ado-ado)
row,pKd,Binder
1,below the threshold,B1
2,below the threshold,B2

# Biological target: T8, LIN7B, Q9HAP6
# Assay: holdup assay
# Set-up: key: below the threshold = too weak to quantify, mostly under pKd 3.1 to 4
# Conditions: plain residues with an end cap or a label only (N-terminal biotin on a linker: ado-ado)
row,pKd,Binder
1,3.58,B1
2,3.77,B2

# Biological target: T9, LIN7C, Q9NUP9
# Assay: holdup assay
# Set-up: key: below the threshold = too weak to quantify, mostly under pKd 3.1 to 4
# Conditions: plain residues with an end cap or a label only (N-terminal biotin on a linker: ado-ado)
row,pKd,Binder
1,below the threshold,B1
2,below the threshold,B2

# Biological target: MAGI2_4, Q86UL8
# Sequence (Q86UL8 772-865): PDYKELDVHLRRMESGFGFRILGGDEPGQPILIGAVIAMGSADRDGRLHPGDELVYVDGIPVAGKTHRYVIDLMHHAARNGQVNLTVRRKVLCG
# Assay: holdup assay
# Set-up: key: below the threshold = too weak to quantify, mostly under pKd 3.1 to 4
# Conditions: plain residues with an end cap or a label only (N-terminal biotin on a linker: ado-ado)
row,pKd,Binder
1,below the threshold,B1
2,below the threshold,B2

# Biological target: T10, MPP7, Q5T2T1
# Assay: holdup assay
# Set-up: key: below the threshold = too weak to quantify, mostly under pKd 3.1 to 4
# Conditions: plain residues with an end cap or a label only (N-terminal biotin on a linker: ado-ado)
row,pKd,Binder
1,below the threshold,B1
2,below the threshold,B2

# Biological target: NHERF4_2, Q86UT5
# Sequence (Q86UT5 220-308): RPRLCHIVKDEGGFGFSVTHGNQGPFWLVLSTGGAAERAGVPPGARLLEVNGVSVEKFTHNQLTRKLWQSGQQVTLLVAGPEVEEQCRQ
# Assay: holdup assay
# Set-up: key: below the threshold = too weak to quantify, mostly under pKd 3.1 to 4
# Conditions: plain residues with an end cap or a label only (N-terminal biotin on a linker: ado-ado)
row,pKd,Binder
1,below the threshold,B1
2,below the threshold,B2

# Biological target: T11, PDZRN3_1, Q9UPQ7
# Assay: holdup assay
# Set-up: key: below the threshold = too weak to quantify, mostly under pKd 3.1 to 4
# Conditions: plain residues with an end cap or a label only (N-terminal biotin on a linker: ado-ado)
row,pKd,Binder
1,below the threshold,B1
2,below the threshold,B2

# Biological target: T12, SIPA1L2, Q9P2F8
# Assay: holdup assay
# Set-up: key: below the threshold = too weak to quantify, mostly under pKd 3.1 to 4
# Conditions: plain residues with an end cap or a label only (N-terminal biotin on a linker: ado-ado)
row,pKd,Binder
1,below the threshold,B1
2,below the threshold,B2

# Biological target: T13, SNTA1, Q13424
# Assay: holdup assay
# Set-up: key: below the threshold = too weak to quantify, mostly under pKd 3.1 to 4
# Conditions: plain residues with an end cap or a label only (N-terminal biotin on a linker: ado-ado)
row,pKd,Binder
1,below the threshold,B1
2,3.99,B2
